Source: patent publication US20260167699A1 (Chugai, published 2026)

Target: T1, FcγRIIIa extracellular domain, C-terminal His tag (human, UniProt P08637 17-208)
T1 construct: extracellular domain; also called 3a
Test: SPR, binding activity relative to GpH7-A5/GpH7-B3/GpL16-k0 (=100)

T1 sequence (P08637 other isoform, or with tags, fused parts or gaps): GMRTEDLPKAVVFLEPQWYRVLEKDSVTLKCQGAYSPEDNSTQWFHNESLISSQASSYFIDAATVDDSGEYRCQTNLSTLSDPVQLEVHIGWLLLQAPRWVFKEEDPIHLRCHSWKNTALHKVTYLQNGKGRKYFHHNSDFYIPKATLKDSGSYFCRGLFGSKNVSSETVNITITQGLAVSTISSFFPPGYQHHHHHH

He/Con 3a [%]	Binder
72.4	GpH7-A5/GpH7-B3 variant S239_03V/GpL16-k0 (antibody, human IgG1, kappa, He Ab; copies: 1 + 1 + 2) heavy 1: not shown heavy 2: not shown light: DIVMTQSPLSLPVTPGEPASISCQASESLVHSNRNTYLHWYLQKPGQSPQLLIYKVSNRFSGVPDRFSGSGSGTDFTLKISRVEAEDVGVYYCSQNTHVPPTFGQGTKVEIERTVAAPSVFIFPPSDEQLKSGTASVVCLLNNFYPREAKVQWKVDNALQSGNSQESVTEQDSKDSTYSLSSTLTLSKADYEKHKVYACEVTHQGLSSPVTKSFNRGEC
90	GpH7-A5/GpH7-B3 variant S239_08L/GpL16-k0 (antibody, human IgG1, kappa, He Ab; copies: 1 + 1 + 2) heavy 1: not shown heavy 2: not shown light: DIVMTQSPLSLPVTPGEPASISCQASESLVHSNRNTYLHWYLQKPGQSPQLLIYKVSNRFSGVPDRFSGSGSGTDFTLKISRVEAEDVGVYYCSQNTHVPPTFGQGTKVEIERTVAAPSVFIFPPSDEQLKSGTASVVCLLNNFYPREAKVQWKVDNALQSGNSQESVTEQDSKDSTYSLSSTLTLSKADYEKHKVYACEVTHQGLSSPVTKSFNRGEC
171	GpH7-A5/GpH7-B3 variant S239_10E/GpL16-k0 (antibody, human IgG1, kappa, He Ab; copies: 1 + 1 + 2) heavy 1: not shown heavy 2: not shown light: DIVMTQSPLSLPVTPGEPASISCQASESLVHSNRNTYLHWYLQKPGQSPQLLIYKVSNRFSGVPDRFSGSGSGTDFTLKISRVEAEDVGVYYCSQNTHVPPTFGQGTKVEIERTVAAPSVFIFPPSDEQLKSGTASVVCLLNNFYPREAKVQWKVDNALQSGNSQESVTEQDSKDSTYSLSSTLTLSKADYEKHKVYACEVTHQGLSSPVTKSFNRGEC
53.8	GpH7-A5/GpH7-B3 variant S239_19Q/GpL16-k0 (antibody, human IgG1, kappa, He Ab; copies: 1 + 1 + 2) heavy 1: not shown heavy 2: not shown light: DIVMTQSPLSLPVTPGEPASISCQASESLVHSNRNTYLHWYLQKPGQSPQLLIYKVSNRFSGVPDRFSGSGSGTDFTLKISRVEAEDVGVYYCSQNTHVPPTFGQGTKVEIERTVAAPSVFIFPPSDEQLKSGTASVVCLLNNFYPREAKVQWKVDNALQSGNSQESVTEQDSKDSTYSLSSTLTLSKADYEKHKVYACEVTHQGLSSPVTKSFNRGEC
80.2	GpH7-A5/GpH7-B3 variant Q295_16H/GpL16-k0 (antibody, human IgG1, kappa, He Ab; copies: 1 + 1 + 2) heavy 1: not shown heavy 2: not shown light: DIVMTQSPLSLPVTPGEPASISCQASESLVHSNRNTYLHWYLQKPGQSPQLLIYKVSNRFSGVPDRFSGSGSGTDFTLKISRVEAEDVGVYYCSQNTHVPPTFGQGTKVEIERTVAAPSVFIFPPSDEQLKSGTASVVCLLNNFYPREAKVQWKVDNALQSGNSQESVTEQDSKDSTYSLSSTLTLSKADYEKHKVYACEVTHQGLSSPVTKSFNRGEC
85.7	GpH7-A5/GpH7-B3 variant Q295_18N/GpL16-k0 (antibody, human IgG1, kappa, He Ab; copies: 1 + 1 + 2) heavy 1: not shown heavy 2: not shown light: DIVMTQSPLSLPVTPGEPASISCQASESLVHSNRNTYLHWYLQKPGQSPQLLIYKVSNRFSGVPDRFSGSGSGTDFTLKISRVEAEDVGVYYCSQNTHVPPTFGQGTKVEIERTVAAPSVFIFPPSDEQLKSGTASVVCLLNNFYPREAKVQWKVDNALQSGNSQESVTEQDSKDSTYSLSSTLTLSKADYEKHKVYACEVTHQGLSSPVTKSFNRGEC
93	GpH7-A5/GpH7-B3 variant S239_14T/GpL16-k0 (antibody, human IgG1, kappa, He Ab; copies: 1 + 1 + 2) heavy 1: not shown heavy 2: not shown light: DIVMTQSPLSLPVTPGEPASISCQASESLVHSNRNTYLHWYLQKPGQSPQLLIYKVSNRFSGVPDRFSGSGSGTDFTLKISRVEAEDVGVYYCSQNTHVPPTFGQGTKVEIERTVAAPSVFIFPPSDEQLKSGTASVVCLLNNFYPREAKVQWKVDNALQSGNSQESVTEQDSKDSTYSLSSTLTLSKADYEKHKVYACEVTHQGLSSPVTKSFNRGEC
72	GpH7-A5/GpH7-B3 variant S239_01G/GpL16-k0 (antibody, human IgG1, kappa, He Ab; also called 3239_01G; copies: 1 + 1 + 2) heavy 1: not shown heavy 2: not shown light: DIVMTQSPLSLPVTPGEPASISCQASESLVHSNRNTYLHWYLQKPGQSPQLLIYKVSNRFSGVPDRFSGSGSGTDFTLKISRVEAEDVGVYYCSQNTHVPPTFGQGTKVEIERTVAAPSVFIFPPSDEQLKSGTASVVCLLNNFYPREAKVQWKVDNALQSGNSQESVTEQDSKDSTYSLSSTLTLSKADYEKHKVYACEVTHQGLSSPVTKSFNRGEC

The next lines start with the binder.

Binder	He/Con 3a [%]
GpH7-A5/GpH7-B3 variant Q295_14T/GpL16-k0 (antibody, human IgG1, kappa, He Ab; copies: 1 + 1 + 2) heavy 1: not shown heavy 2: not shown light: DIVMTQSPLSLPVTPGEPASISCQASESLVHSNRNTYLHWYLQKPGQSPQLLIYKVSNRFSGVPDRFSGSGSGTDFTLKISRVEAEDVGVYYCSQNTHVPPTFGQGTKVEIERTVAAPSVFIFPPSDEQLKSGTASVVCLLNNFYPREAKVQWKVDNALQSGNSQESVTEQDSKDSTYSLSSTLTLSKADYEKHKVYACEVTHQGLSSPVTKSFNRGEC	120
GpH7-A5/GpH7-B3 variant S267_01G/GpL16-k0 (antibody, human IgG1, kappa, He Ab; copies: 1 + 1 + 2) heavy 1: not shown heavy 2: not shown light: DIVMTQSPLSLPVTPGEPASISCQASESLVHSNRNTYLHWYLQKPGQSPQLLIYKVSNRFSGVPDRFSGSGSGTDFTLKISRVEAEDVGVYYCSQNTHVPPTFGQGTKVEIERTVAAPSVFIFPPSDEQLKSGTASVVCLLNNFYPREAKVQWKVDNALQSGNSQESVTEQDSKDSTYSLSSTLTLSKADYEKHKVYACEVTHQGLSSPVTKSFNRGEC	53.3
GpH7-A5/GpH7-B3 variant Q295_15Y/GpL16-k0 (antibody, human IgG1, kappa, He Ab; copies: 1 + 1 + 2) heavy 1: not shown heavy 2: not shown light: DIVMTQSPLSLPVTPGEPASISCQASESLVHSNRNTYLHWYLQKPGQSPQLLIYKVSNRFSGVPDRFSGSGSGTDFTLKISRVEAEDVGVYYCSQNTHVPPTFGQGTKVEIERTVAAPSVFIFPPSDEQLKSGTASVVCLLNNFYPREAKVQWKVDNALQSGNSQESVTEQDSKDSTYSLSSTLTLSKADYEKHKVYACEVTHQGLSSPVTKSFNRGEC	81.5
GpH7-A5/GpH7-B3 variant S239_09D/GpL16-k0 (antibody, human IgG1, kappa, He Ab; copies: 1 + 1 + 2) heavy 1: not shown heavy 2: not shown light: DIVMTQSPLSLPVTPGEPASISCQASESLVHSNRNTYLHWYLQKPGQSPQLLIYKVSNRFSGVPDRFSGSGSGTDFTLKISRVEAEDVGVYYCSQNTHVPPTFGQGTKVEIERTVAAPSVFIFPPSDEQLKSGTASVVCLLNNFYPREAKVQWKVDNALQSGNSQESVTEQDSKDSTYSLSSTLTLSKADYEKHKVYACEVTHQGLSSPVTKSFNRGEC	156
GpH7-A5/GpH7-B3 variant S239_18N/GpL16-k0 (antibody, human IgG1, kappa, He Ab; copies: 1 + 1 + 2) heavy 1: not shown heavy 2: not shown light: DIVMTQSPLSLPVTPGEPASISCQASESLVHSNRNTYLHWYLQKPGQSPQLLIYKVSNRFSGVPDRFSGSGSGTDFTLKISRVEAEDVGVYYCSQNTHVPPTFGQGTKVEIERTVAAPSVFIFPPSDEQLKSGTASVVCLLNNFYPREAKVQWKVDNALQSGNSQESVTEQDSKDSTYSLSSTLTLSKADYEKHKVYACEVTHQGLSSPVTKSFNRGEC	104
GpH7-A5/GpH7-B3 variant S239_02A/GpL16-k0 (antibody, human IgG1, kappa, He Ab; copies: 1 + 1 + 2) heavy 1: not shown heavy 2: not shown light: DIVMTQSPLSLPVTPGEPASISCQASESLVHSNRNTYLHWYLQKPGQSPQLLIYKVSNRFSGVPDRFSGSGSGTDFTLKISRVEAEDVGVYYCSQNTHVPPTFGQGTKVEIERTVAAPSVFIFPPSDEQLKSGTASVVCLLNNFYPREAKVQWKVDNALQSGNSQESVTEQDSKDSTYSLSSTLTLSKADYEKHKVYACEVTHQGLSSPVTKSFNRGEC	70.9
GpH7-A5/GpH7-B3 variant S239_07I/GpL16-k0 (antibody, human IgG1, kappa, He Ab; copies: 1 + 1 + 2) heavy 1: not shown heavy 2: not shown light: DIVMTQSPLSLPVTPGEPASISCQASESLVHSNRNTYLHWYLQKPGQSPQLLIYKVSNRFSGVPDRFSGSGSGTDFTLKISRVEAEDVGVYYCSQNTHVPPTFGQGTKVEIERTVAAPSVFIFPPSDEQLKSGTASVVCLLNNFYPREAKVQWKVDNALQSGNSQESVTEQDSKDSTYSLSSTLTLSKADYEKHKVYACEVTHQGLSSPVTKSFNRGEC	75
GpH7-A5/GpH7-B3 variant S239_06M/GpL16-k0 (antibody, human IgG1, kappa, He Ab; copies: 1 + 1 + 2) heavy 1: not shown heavy 2: not shown light: DIVMTQSPLSLPVTPGEPASISCQASESLVHSNRNTYLHWYLQKPGQSPQLLIYKVSNRFSGVPDRFSGSGSGTDFTLKISRVEAEDVGVYYCSQNTHVPPTFGQGTKVEIERTVAAPSVFIFPPSDEQLKSGTASVVCLLNNFYPREAKVQWKVDNALQSGNSQESVTEQDSKDSTYSLSSTLTLSKADYEKHKVYACEVTHQGLSSPVTKSFNRGEC	73.9
